Positions count from the first letter of the chain named. “Also recorded” adds a separate entry of the source. Values belong to the molecule of their own block, whether it stands above or below them.
Target: T1, FSTL1 (Homo sapiens, UniProt Q12841)
T1 sequence (Q12841 21-308): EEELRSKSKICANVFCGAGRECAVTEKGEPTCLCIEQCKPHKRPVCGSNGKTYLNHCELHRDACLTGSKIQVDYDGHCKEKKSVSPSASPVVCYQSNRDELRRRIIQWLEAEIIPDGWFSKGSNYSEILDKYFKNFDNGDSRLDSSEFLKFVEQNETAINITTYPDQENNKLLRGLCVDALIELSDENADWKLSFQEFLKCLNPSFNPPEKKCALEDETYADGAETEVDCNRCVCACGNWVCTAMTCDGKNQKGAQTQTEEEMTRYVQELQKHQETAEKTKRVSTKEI
Assay: Inhibition of activation of tumor cells by FSTL1, RANKL- and CCR2-positive cells in human pancreatic cancer cell line Panc1 (Examples 5, 7, 9, 10, 11)
Format: cell-based
Parameters: purchased R&D Systems, Inc. 1694-FN-050
Details: for inhibitory activity against the expansion of RANKL-positive cells and CCR2-positive cells: FSTL1 50 ng/mL
Method: It is known that tumor cells activated by stimulation with FSTL1 highly express molecule groups promoting bone metastasis and increase metastatic invasive capacity (Cancer Research 73: 6185, 2013). Thus, 2×10^7 cells/well of a human pancreatic cancer cell line Panc1 were suspended in 1 mL/well of D-MEM medium (GIBCO/Thermo Fisher Scientific Inc. Cat. No. C11885500BT) containing 10% fetal bovine serum, supplemented with 50 ng/mL (final concentration) of FSTL1 (R&D Systems, Inc.) and 10 μg/mL of the anti-FSTL1 antibody (#5-2, #5-8, #5-10, #5-43, #6-55, or #7-34) or its isotype mouse IgG (anti-DNP antibody) as a control antibody “Control”, and cultured under stimulation (6-well plate). 3 days thereafter, the number of cells was counted while the cells were stained with a PE-labeled anti-RANKL antibody (eBioscience Cat. No. 12-6619) and a PE-labeled anti-CCR2 antibody (R&D Systems, Inc. Cat. No. FAB151P) in order to examine the expression of markers indicating bone metastatic properties, and the contents of RANKL-positive cells and CCR2-positive cells were analyzed by flow cytometry using FACScan (Becton, Dickinson and Company) to calculate the numbers of cells per culture. […] Therefore, in Examples below, judgment was made with the number of cells as an index.
(§1) In the same way as in Example 5, a human pancreatic cancer cell line Panc1 was supplemented with 50 ng/mL (final concentration) of FSTL1 (R&D Systems, Inc.) and 10 μg/mL of the anti-FSTL1 antibody (the same clones as in Example 6) or a control antibody and cultured under stimulation. 3 days thereafter, the number of cells was counted while the cells were stained with a PE-labeled anti-RANKL antibody and a PE-labeled anti-CCR2 antibody, and the contents of RANKL-positive cells and CCR2-positive cells were analyzed by flow cytometry using FACScan (Becton, Dickinson and Company) to calculate the numbers of cells per culture (FIG. 67B).
as §1, with “20” for “50”, “FSTL1” for “FSTL1 (R&D Systems, Inc.)”, “(#5-2, #5-8, or #6-55)” for “(the same clones as in Example 6)”, “68B).” for “67B).”
as §1, with “FSTL1” for “FSTL1 (R&D Systems, Inc.)”, “(#5-2, #5-3, #6-55, #7-34, #8-1, #8-4, #8-7, or #8-8)” for “(the same clones as in Example 6)”, “culture.” for “culture (FIG. 67B).”
as §1, with “FSTL1” for “FSTL1 (R&D Systems, Inc.)”, “(#6-55)” for “(the same clones as in Example 6)”, “culture.” for “culture (FIG. 67B).”

[1] = Example 7, antibody 10 μg/mL, 3 days
[2] = Example 10, antibody 10 μg/mL, 3 days, including newly obtained clones

inhibitory activity against the expansion of RANKL-positive cells and CCR2-positive cells [1]: higher inhibitory activity
B1: #5-3: chicken-mouse chimeric anti-FSTL1 antibody clone; variable regions SEQ ID NO: 767 (light), 769 (heavy) (antibody, V domains shown)
VH: AVTLDESGGGLQTPGGALSLVCKGSGFSFSSFNMFWVRQAPGKGLEWVAGIGKDGVPKYGAAVDGRATISKDNGQSTMRLQLNNLRAEDTGTYFCAKAAGGCSYDWCGIYAGDIDTWGHGTEVIVSS
VL: ASTQPSSVSANPGETVKITCSGGSGYYYGWYQQKSPGSVPVTVIYNNNNRPSDIPSRFSGSKSGSTGTLTITGVRAEDEAVYYCGGYDNSGTGIFGAGTTLTVL
modifications: mouse constant regions

B2: #8-4: chicken-mouse chimeric anti-FSTL1 antibody clone; variable regions SEQ ID NO: 795 (light), 797 (heavy) (antibody, V domains shown)
VH: AVTLDESGGGLQTPGGGLSLVCKGSGFTLSSFNMFWVRQAPGKGLEWVAGVGKDGGTAYGAAVDGRATISRDSGQSTVRLQLNNLRAEDTGTYFCAKAAGGCSYSWCGAYVGDLDAWGHGTEVIVSS
VL: B1 VL with T3S, V39A, N48D, R50K, R75Q, A76V, Y83F
modifications: mouse constant regions
inhibitory activity against the expansion of RANKL-positive cells and CCR2-positive cells [2]: higher inhibitory activity; also recorded: high inhibitory activity

inhibitory activity against the expansion of RANKL-positive cells and CCR2-positive cells [1]: higher inhibitory activity
B3: #5-8: chicken-mouse chimeric anti-FSTL1 antibody clone; variable regions SEQ ID NO: 771 (light), 773 (heavy) (antibody, V domains shown)
VH: B1 VH with A17G, S28T, A61T, A111T
VL: ASTQPSSVSANPGEAVKITCSGGSGSYYGWYQQKSPGSAPVTVIYNNNQRPSDIPSRFSGSKSGSTATLTITGVQAEDEAVYFCGGYDSSTGHGGIFGAGTTLTVL
modifications: mouse constant regions

B4: #8-7: chicken-mouse chimeric anti-FSTL1 antibody clone; variable regions SEQ ID NO: 799 (light), 801 (heavy) (antibody, V domains shown)
VH: B1 VH with A17G, S28T, M78L
VL: B3 VL
modifications: mouse constant regions
inhibitory activity against the expansion of RANKL-positive cells and CCR2-positive cells [2]: higher inhibitory activity; also recorded: high inhibitory activity

B5: #6-55: chicken-mouse chimeric anti-FSTL1 antibody clone; variable regions SEQ ID NO: 783 (light), 785 (heavy) (antibody, V domains shown)
VH: AVTLDESGGGLQTPGGALSLVCKGSGFTFTSVTMQWVRQAPGKGLEWVASVCSGSSTYYAPAVKGRATISRDNGQSTVRLQLSNLRPEDTGTYYCAKIAGRARWSCTSAAYNIDAWGHGTEVIVSS
VL: ASTQPSSVSAIPGETVKITCSGGGNNYGWYQQRSPGSAPVTVIYYNDNRPSNIPSRFSGSTSGSTSTLTITGVQADDEAIYYCGSWDSNTDSGIFGAGTTLTVL
modifications: mouse constant regions
inhibitory activity against the expansion of RANKL-positive cells and CCR2-positive cells [2]: higher inhibitory activity; also recorded: high inhibitory activity | inhibition of cell induction of RANKL-positive cells and CCR2-positive cells (dose dependence test) (Example 11, figure legend): strongly inhibited the cell induction of both RANKL-positive cells and CCR2-positive cells | inhibitory activity against the expansion of RANKL-positive cells and CCR2-positive cells (Example 11, all tested doses 5, 10 and 20 μg/mL, dose dependence not confirmed): ~100%

B6: #5-2: chicken-mouse chimeric anti-FSTL1 antibody clone; variable regions SEQ ID NO: 763 (light), 765 (heavy) (antibody, V domains shown)
VH: B2 VH with L29F, A58G, R71K, S73N, V78L, F94Y, S105G, A109S, L114I
VL: B3 VL
modifications: mouse constant regions
inhibitory activity against the expansion of RANKL-positive cells and CCR2-positive cells [2]: higher inhibitory activity; also recorded: high inhibitory activity
